Positions of bridges follow the written chain, without caps; N, C: chain ends. No end group written: not given here.
Assays:
[1] = molecular target: Ile83Glu anti-HER2 memAb; experiment: SPR
[2] = molecular target: anti-HER2 memAb (trastuzumab-based, meditope-enabled anti-HER2 antibody); experiment: SPR
Sequence of anti-HER2 memAb (trastuzumab-based, meditope-enabled anti-HER2 antibody) (VH, as listed by the source, chain 1 of 2): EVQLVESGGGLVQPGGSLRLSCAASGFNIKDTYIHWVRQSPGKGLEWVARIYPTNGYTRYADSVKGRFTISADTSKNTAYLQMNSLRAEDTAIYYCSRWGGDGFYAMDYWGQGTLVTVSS
Sequence of anti-HER2 memAb (trastuzumab-based, meditope-enabled anti-HER2 antibody) (VL, as listed by the source, chain 2 of 2): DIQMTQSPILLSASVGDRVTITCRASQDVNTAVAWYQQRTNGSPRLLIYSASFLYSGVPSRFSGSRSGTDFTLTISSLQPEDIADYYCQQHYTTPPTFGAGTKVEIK

Sequence of Ile83Glu anti-HER2 memAb (VH, as listed by the source, chain 1 of 2): as the sequence (VH, as listed by the source, chain 1 of 2) above
Sequence of Ile83Glu anti-HER2 memAb (VL, as listed by the source, chain 2 of 2): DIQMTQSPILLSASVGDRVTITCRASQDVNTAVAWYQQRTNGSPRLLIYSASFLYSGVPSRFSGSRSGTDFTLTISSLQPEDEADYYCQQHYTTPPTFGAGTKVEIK

| Kd [1] | Kd [2] | Binder |
| --- | --- | --- |
| 20 nM | – | CQFDLSTRRLKC (disulfide 1-12 (inferred)) [original meditope (CQFDLSTRRLKC)] |
| – | 39 nM | Ac-CQFDASTRRLRCGGSK (disulfide 1-12 (inferred); not fully specified (residue 5); printed as (Ac)CQFDA(Ph)2STRRLRCGGSK) [5-diphenylalanine long meditope ((Ac)CQFDA(Ph)2STRRLRCGGSK)] |

Reference: PMC5910394 (2018)
